B1: TOR1AIP2 (parent)
chain: SPGHSSAGQEGEDTLRRRLLAPEA
B2: FBXO33 (parent)
chain: RLRGLLRVLRGRPGAGSRRRGRMA

Variants of: B1
Test: protein stability index of a GFP-peptide fusion (GPS, HEK-293T) (PSI 1-6); higher = more stable
Conditions: c terminus: a fixed tail appended
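Further: lentivirally expressed fusions sorted by FACS into six bins by GFP to DsRed ratio, PSI derived from sequencing read proportions per bin multiplied by bin number.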

Protein stability index: each site, then its substitutions
A21: N 4.9; E 5.23; H 5.26; G 5.31; K 4.89; V 4.86; I 4.51; D 5.37; Y 4.38; C 3.31; S 3.08; L 4.58; F 4.71; P 5.09; R 4.89; W 4.16; M 4.19; T 5.39; Q 4.94
R18: I 3.07; P 5.5; H 4.6; K 4.83; V 4.14; G 5.1; M 3.29; Q 3.89; Y 2.94; S 5.01; N 4.98; L 2.99; W 2.51; T 4.58
E23: A 4.71; N 4.46; M 4.47; R 4.77; V 4.38; H 4.09; C 4.42; K 4.95; G 4.67; Y 3.59; W 3.98; D 4.15; F 3.78; Q 4.59; S 4.46; I 4.1; L 3.87; P 5.13; T 4.53
L20: P 5.15; E 4.9; H 5.29; Q 5.63; D 4.7; N 5.25; G 5.54; I 4.94; K 5.38; R 5.26; V 5.21; Y 4.51; S 4.95; W 4.73; T 5.33; F 3.94; A 5.64; M 5.01; C 5.49
A24: H 4.43; L 3.02; Q 4.82; S 4.35; R 4.54; W 2.94; E 5.36; V 4.59; D 5.29; M 2.76; I 4.2; P 4.94; C 4.27; K 4.82; T 4.61; Y 3.42; F 3.98; N 4.83; G 5.14
L19: M 3.39; V 4.9; H 5.52; Y 4.86; T 5.55; I 3.39; A 5.4; D 5.35; W 4.3; N 5.34; S 5.24; K 5.54; R 4.89; E 5.46; F 4.73; G 5.45; C 4.99; Q 5.33; P 5.29
P22: C 4.41; D 5.34; M 4.93; E 4.95; G 5.11; I 5.16; K 5.46; S 4.92; R 4.99; Q 5.42; H 5.27; F 4.92; Y 4.41; A 4.42; N 5.76; L 4.59; T 4.47; V 4.8; W 4.84

Variants of: B2
Test: as above
Conditions: c terminus: a fixed tail appended

Protein stability index of substitutions, site by site:
R18: H 1.59; I 1.72; L 1.15; F 1; C 1.8; Y 1.95; P 1.08; E 1.99; Q 2.83; V 1.26; G 1.16
R20: A 4.73; Q 1.56; F 1.13; C 1.72; M 2.24; H 1.23; V 2.39; E 2.29
R7: G 2.86; T 2.05; E 2.04; L 2.56; S 2.83; I 2.17; N 2.35; Y 2.41; W 1.69
G4: P 2.23; C 1.45; L 2.2; R 2.06; E 2.08; H 1.29; D 1.88
L5: V 2.71; P 4.32; A 4.21; S 4.64; N 4.52; D 4.05; E 3.98; W 1.85; Y 3.49; Q 3.78; C 3.17; G 4.71; M 2.88
A15: S 1.6; R 2.46; Y 2.17; D 1.66; T 1.47; L 1.19; W 1.8; K 1.25; F 1.93; C 1.71; Q 1.49; G 1.54; N 1.8
R10: N 1.72; C 2.99; I 2.25; S 1.93; P 2.59; A 1.96
G21: D 1.78; L 1.57; C 1.39; H 1.66; P 1.69; F 1.58; I 2.32; R 3.38
G14: M 1.92; L 1.41; W 2.76; Y 3; F 1.85; A 2.84; V 2.04; K 1.86; C 1.84
R1: L 1.59; A 1.7; N 2.01; S 1.75; Q 2.02; D 2.92; W 1.69; C 1.2; G 1.84; F 1.53
L6: E 2.75; A 3.57; R 4.41; C 2.07; G 4.8; K 2.73; V 2.77; D 5.1; I 2.18; T 4.48
R3: K 2.83; T 2.23; V 1.02; D 2.67; Q 2.21; M 1.54
R22: N 1.77; S 1.99; H 2.33; C 2.09; I 2.78; K 1.76; Y 1.7; M 2.25; W 1.65
G16: I 1.01; N 2.57; Q 1.65; Y 1.86; P 2.06; E 2.94; S 1.5; H 1.83; F 1.79; T 2.96; L 1.44
P13: F 2.1; H 1.77; S 3.48; C 2.09; D 2.01; V 2.68; K 3.26; I 1.6; Q 2.34
M23: L 2.89; H 2.42; T 2.44; P 1.58; N 2.02
G11: N 2.47; P 2.23; T 2.23; H 1.92; E 1.83; I 2.77; C 1.64
L9: V 1.92; Q 3.39; E 3.75; W 2.83; N 3.72; F 3.09; T 4; K 3.26; Y 2.73
R19: Q 1.75; E 1.43; W 1.48; T 1.75; K 1.89; S 1.79; N 1.71; H 1.88
S17: E 2.36; T 3.32; L 2.86; F 2.58; A 1.75; Y 2.52; K 2.01; G 1.92
V8: K 1.91; F 2.83; S 1.93; R 2.54; W 1.87; I 2.84; T 1.81; C 2.06; H 2.1; P 4.41; D 2.47; N 2.01; Y 2.64
L2: H 4.34; M 3.22; E 3.99; P 4.19; K 3.56; Q 5.05; W 3.3; F 2.1
R12: Q 2.17; W 1.79; L 1.66; A 3.08; I 1.06; D 2.31; S 2.19; T 2.03; G 2.53

Source: the supplement of paper PMC10567573
